Numbering of substitutions follows the chain as printed. Names may count otherwise. Read-outs that look alike come from different tables or passages of the source. One block for each binder: values may come before it.
Experiments:
[1] = target: T1, human CD3 (human, UniProt P07766 23-207; P04234 22-171; P09693 23-182); test: cell-based or functional assay
[2] = target: T1, human CD3; test: FACS on Jurkat cells
[3] = target: T1, human CD3; test: cell-based or functional assay; remark: listed apart in the source
[4] = target: T1, human CD3; test: FACS on Jurkat cells; remark: listed apart in the source

T1 sequence (P07766 23-207, chain 1 of 3): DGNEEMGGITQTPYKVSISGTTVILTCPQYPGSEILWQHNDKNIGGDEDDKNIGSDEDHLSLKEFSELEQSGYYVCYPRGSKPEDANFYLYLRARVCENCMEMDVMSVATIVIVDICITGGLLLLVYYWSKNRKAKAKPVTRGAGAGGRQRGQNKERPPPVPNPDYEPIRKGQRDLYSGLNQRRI
T1 sequence (P04234 22-171, chain 2 of 3): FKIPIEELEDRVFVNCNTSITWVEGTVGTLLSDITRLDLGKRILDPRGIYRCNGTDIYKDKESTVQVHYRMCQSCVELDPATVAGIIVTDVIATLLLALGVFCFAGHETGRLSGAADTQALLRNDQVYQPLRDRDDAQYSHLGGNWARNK
T1 sequence (P09693 23-182, chain 3 of 3): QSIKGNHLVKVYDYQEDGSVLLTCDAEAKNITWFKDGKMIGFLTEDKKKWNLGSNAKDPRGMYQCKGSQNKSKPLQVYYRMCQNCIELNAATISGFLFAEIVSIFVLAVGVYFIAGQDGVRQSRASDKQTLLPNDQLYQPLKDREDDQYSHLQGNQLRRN

B1: hu40E9-L3H2 (antibody, V domains shown)
VH: EVQLVQSGAEVKKPGSSVKVSCKASGYTFSSYVIHWVRQAPGQGLEWMGYINPYNDVIKYNEKFKGRVTITADKSTSTAYMELSSLRSEDTAVYYCARDSYYSYDGFAYWGQGTLVTVSS
VL: EIVLTQSPDFQSVTPKEKVTITCSASSSVSYMHWYQQKPDQSPKRWIYDTSKLASGVPSRFSGSGSGTDYTLTINSLEAEDAATYYCQQWSSNPPTFGGGTKVEIK
notes: humanized 40-C12-C10-E9
EC50_Fold change (Jurkat-NFAT-luciferase activation, normalized to ch40-C12-C10-E9) [1]: 0.57 fold | Top FACS signal_Fold change (Jurkat-NFAT-luciferase activation, normalized to ch40-C12-C10-E9) [1]: 0.73 fold | EC50 [2]: 0.52 nM | Top FACS signal [2]: 1410

B2: hu40E9-L2H15 (antibody, V domains shown)
VH: B1 VH with I70L, A72S, D99G
VL: B1 VL with W46L, Y70F
EC50_Fold change (Jurkat-NFAT-luciferase activation, normalized to ch40-C12-C10-E9) [3]: 98.6 fold | Top signal_Fold change (Jurkat-NFAT-luciferase activation, normalized to ch40-C12-C10-E9) [3]: 0.75 fold | EC50 [4]: 51.7 nM | Top FACS signal [4]: 796

B3: hu40E9-L2H13 (antibody, V domains shown)
VH: B1 VH with I70L, A72S, S100G
VL: B1 VL with W46L, Y70F
EC50_Fold change (Jurkat-NFAT-luciferase activation, normalized to ch40-C12-C10-E9) [3]: 3.08 fold | Top signal_Fold change (Jurkat-NFAT-luciferase activation, normalized to ch40-C12-C10-E9) [3]: 0.51 fold | EC50 [4]: 83.7 nM | Top FACS signal [4]: 2050

B6: hu40E9-L2H3-Y101F.H (antibody, V domains shown)
VH: B1 VH with I70L, A72S, Y101F
VL: B1 VL with W46L, Y70F
EC50_Fold change (Jurkat-NFAT-luciferase activation, normalized to ch40-C12-C10-E9) [1]: 1.23 fold | Top FACS signal_Fold change (Jurkat-NFAT-luciferase activation, normalized to ch40-C12-C10-E9) [1]: 0.94 fold | EC50 [2]: 0.64 nM | Top FACS signal [2]: 1190

B7: hu40E9-L4H8 (antibody, V domains shown)
VH: B1 VH with Y54G, I70L, A72S, D99E, Y102S
VL: B1 VL with W46L, Y70F, S91R, N93R
Top signal_Fold change (Jurkat-NFAT-luciferase activation, normalized to ch40-C12-C10-E9) [3]: 0.32 fold | EC50 [4]: 26.9 nM | Top FACS signal [4]: 255

B9: hu40E9-L2H4 (antibody, V domains shown)
VH: B1 VH with M48I, V68A, I70L, A72S
VL: B1 VL with W46L, Y70F
notes: humanized 40-C12-C10-E9
EC50_Fold change (Jurkat-NFAT-luciferase activation, normalized to ch40-C12-C10-E9) [1]: 0.8 fold | Top FACS signal_Fold change (Jurkat-NFAT-luciferase activation, normalized to ch40-C12-C10-E9) [1]: 0.89 fold | EC50 [2]: 0.86 nM | Top FACS signal [2]: 1570

B13: hu40E9-L3H4 (antibody, V domains shown)
VH: B1 VH with M48I, V68A, I70L, A72S
VL: B1 VL
notes: humanized 40-C12-C10-E9
EC50_Fold change (Jurkat-NFAT-luciferase activation, normalized to ch40-C12-C10-E9) [1]: 0.61 fold | Top FACS signal_Fold change (Jurkat-NFAT-luciferase activation, normalized to ch40-C12-C10-E9) [1]: 0.64 fold | EC50 [2]: 0.49 nM | Top FACS signal [2]: 1360

The remaining binders from weak to strong by EC50 [4], led by results:

EC50_Fold change (Jurkat-NFAT-luciferase activation, normalized to ch40-C12-C10-E9) [3]: 2.97 fold | Top signal_Fold change (Jurkat-NFAT-luciferase activation, normalized to ch40-C12-C10-E9) [3]: 0.85 fold | EC50 [4]: 5 nM | Top FACS signal [4]: 2000
B12: hu40E9-L2H11 (antibody, V domains shown)
VH: B1 VH with I70L, A72S, D105R, G106A
VL: B1 VL with W46L, Y70F

EC50_Fold change (Jurkat-NFAT-luciferase activation, normalized to ch40-C12-C10-E9) [3]: 4.57 fold | Top signal_Fold change (Jurkat-NFAT-luciferase activation, normalized to ch40-C12-C10-E9) [3]: 0.74 fold | EC50 [4]: 4.17 nM | Top FACS signal [4]: 1260
B4: hu40E9-L2H6 (antibody, V domains shown)
VH: B1 VH with I70L, A72S, D99E, Y101F, Y102S
VL: B1 VL with W46L, Y70F

EC50_Fold change (Jurkat-NFAT-luciferase activation, normalized to ch40-C12-C10-E9) [3]: 1.82 fold | Top signal_Fold change (Jurkat-NFAT-luciferase activation, normalized to ch40-C12-C10-E9) [3]: 1.08 fold | EC50 [4]: 1.59 nM | Top FACS signal [4]: 2490
B11: hu40E9-L4H3 (antibody, V domains shown)
VH: B1 VH with I70L, A72S
VL: B1 VL with W46L, Y70F, S91R, N93R

EC50_Fold change (Jurkat-NFAT-luciferase activation, normalized to ch40-C12-C10-E9) [3]: 6.18 fold | Top signal_Fold change (Jurkat-NFAT-luciferase activation, normalized to ch40-C12-C10-E9) [3]: 1.35 fold | EC50 [4]: 1.27 nM | Top FACS signal [4]: 2010
B14: hu40E9-L2H16 (antibody, V domains shown)
VH: B1 VH with S31D, I70L, A72S
VL: B1 VL with W46L, Y70F

EC50_Fold change (Jurkat-NFAT-luciferase activation, normalized to ch40-C12-C10-E9) [3]: 1.18 fold | Top signal_Fold change (Jurkat-NFAT-luciferase activation, normalized to ch40-C12-C10-E9) [3]: 0.77 fold | EC50 [4]: 0.66 nM | Top FACS signal [4]: 2380
B10: hu40E9-L2H7 (antibody, V domains shown)
VH: B1 VH with Y54G, D56G, I70L, A72S, Y102S
VL: B1 VL with W46L, Y70F

EC50_Fold change (Jurkat-NFAT-luciferase activation, normalized to ch40-C12-C10-E9) [3]: 2.49 fold | Top signal_Fold change (Jurkat-NFAT-luciferase activation, normalized to ch40-C12-C10-E9) [3]: 0.87 fold | EC50 [4]: 0.56 nM | Top FACS signal [4]: 1760
B8: hu40E9-L2H9 (antibody, V domains shown)
VH: B1 VH with N55S, I70L, A72S, D99E, Y101F
VL: B1 VL with W46L, Y70F

EC50_Fold change (Jurkat-NFAT-luciferase activation, normalized to ch40-C12-C10-E9) [3]: 3.86 fold | Top signal_Fold change (Jurkat-NFAT-luciferase activation, normalized to ch40-C12-C10-E9) [3]: 0.96 fold | EC50 [4]: 0.43 nM | Top FACS signal [4]: 2020
B5: hu40E9-L2H14 (antibody, V domains shown)
VH: B1 VH with I70L, A72S, D99E
VL: B1 VL with W46L, Y70F

Source: patent US20250223358A1 (ANTENGENE BIOLOGICS, published 2025)
